The target in test [1] is T1, human FcγRIIb receptor on CHO-K1 cells (clone 223) (human, UniProt P31994 43-310).
T1 sequence (looked up): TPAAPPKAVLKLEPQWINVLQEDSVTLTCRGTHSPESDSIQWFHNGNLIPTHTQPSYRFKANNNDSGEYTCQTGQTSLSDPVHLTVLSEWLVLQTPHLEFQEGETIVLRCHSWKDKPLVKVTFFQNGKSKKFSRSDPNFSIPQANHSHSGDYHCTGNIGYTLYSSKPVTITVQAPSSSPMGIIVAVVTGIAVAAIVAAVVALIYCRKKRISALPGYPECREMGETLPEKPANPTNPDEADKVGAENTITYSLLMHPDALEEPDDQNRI
Put plainly: cell-based or functional assay.

Test [2] concerns the target T2, human CCL2 (MCP1) - wild type (wt) (human, UniProt P13500 24-99).
T2 construct: Made in-house or bought (R&D Systems 279-MC), depending on the assay; can form dimers; also called wt human CCL2; WT human CCL2
Put plainly: SPR, C1 chip, anti-human Fc capture, 25 C, pH 7.4, Langmuir 1:1. On the procedure:
The sample and system buffer was PBS-T (10 mM phosphate buffered saline including 0.05% Tween20) pH 7.4. The flow cell was set to 25° C.—and the sample block set to 12° C.—and primed with running buffer twice. The bispecific antibody was captured by injecting a 2 μg/ml solution for 60 see at a flow rate of 10 μl/min. Association was measured by injection of human CCL2 (wt) in various concentrations in solution for 150 see at a flow rate of 30 μl/min starting with 30 nM in 1:10 dilutions. The dissociation phase was monitored for up to 1200 sec and triggered by switching from the sample solution to running buffer. […] Bulk refractive index differences were corrected by subtracting the response obtained from a goat anti human IgG Fc surface. Blank injections are also subtracted (=double referencing). For calculation of kinetic parameters, the Langmuir 1:1 model was used.
A general note: In SPR one partner is held on a chip, and binding of the other changes the refractive index at the surface.

B1: CKLO2-GG02 (=P1AF8139) (bispecific antibody)
heavy 1: DIQMTQSPSSLSASVGDRVTITCKAFEDIYNRRAWYQQKPGKAPKLLIHGATSLEHGVPSRFSGSGSGTDYTLTISSLQPEDFATYYCQQFWSAPYTFGGGTKVEIKSSASTKGPSVFPLAPSSKSTSGGTAALGCLVKDYFPEPVTVSWNSGALTSGVHTFPAVLQSSGLYSLSSVVTVPSSSLGTQTYICNVNHKPSNTKVDKKVEPKSCDKTHTCPPCPAPEYLGGDSVFLFPPKPKDVLMISRTPEVTCVVIDVSHEDPEVKFNWYVDGVEVHNAKTKPREEQYNSTYRVVSVLPVLHRDWLNGKEYKCKVSNKALPKPIEKTISKAKGQRREPQVYTLPPCRDELTKNQVSLWCLVKGFYPSDIAVEWESNGQPENNYKTTPPVLDSDGSFFLYSKLTVDKSRWQQGNVFSCSVLHEALHAHTTRKELSLSP
heavy 2: not shown
light 1: QVQLVQSGAEVKKPGSSVKVSCKASGLTISHTYMHWVRQAPGQGLEWMGRIDPDNHNTKFDPKFQGRVTITADTSTSTAYMELSSLRSEDTAVYYCARGVFGFFEHWGQGTTVTVSSASVAAPSVFIFPPSDEQLKSGTASVVCLLNNFYPREAKVQWKVDNALQSGNSQESVTEQDSKDSTYSLSSTLTLSKADYEKHKVYACEVTHQGLSSPVTKSFNRGEC
light 2: EIVLTQSPATLSLSPGERATLSCRASQHVSDAYLAWYQQKPGQAPRLLIYDASDRAEGVPARFSGSGSGTDFTLTISSLEPEDFAVYYCHQYIHLHSFTFGQGTKVEIKRTVAAPSVFIFPPSDRKLKSGTASVVCLLNNFYPREAKVQWKVDNALQSGNSQESVTEQDSKDSTYSLSSTLTLSKADYEKHKVYACEVTHQGLSSPVTKSFNRGEC
As for B1, in test [1], the “Depletion level max (%) of CCL2 from the supernatant” value came to 45%, the “EC50 [nM] of CCL2 depletion” value amounted to 0.6 nM and the “EC90 [nM] of CCL2 depletion” value is around 30 nM.

B2: 1A5//1G9-PGLALA (bispecific antibody, V domains shown)
VH 1: QEQLVESGGDLVKPEGSLTLTCTASGFSFSTSYWMCWVRQAPGKGLELIACISSSIGVTYYASWAEGRFTISKTSSTTVTLQMTSLTVADTATYFCARTTDDNWNVGFNLWGPGTLVTVSS
VL 1: AYDMTQTPASVEVGVGGTVTIKCQASQSIGNRYLSWYQQKPGQPPKLLIYGTSTLASGVSSRFKGSGSGTQFTLTISGVESADSATYYCQQGATISYLDNAFGGGTEVVVK
VH 2: QSLEESGGDLVKPGASLTLTCKASGIDFSLYSYMCWVRQAPGKGLEWIACVDAGASGSTYYASWAKGRFTISKTSSTTVTLQMTSLTAADTATYFCARGILYYTWPYPAGAIDAFDSWGPGTLVTVSS
VL 2: AYDMTQTPASVSEPVGGTVTIKCQASESISNYLSWYQQKPGQPPKLLIYKASTLASGVPSRFKGSGSGTEYTVTISGVQSDDAATYYCQQSYSSSNVFNTFGGGTEVVVK
notes: CrossMab, IgG1 with L234A, L235A, P329G, knobs-into-holes; crossed arm 1A5, non-crossed arm 1G9; also called CCL2-0046; P1AA3444
On to B2, for which the binding result in test [2] is “binds”.

B3: 1A5//2F6-WT IgG1 (bispecific antibody, V domains shown)
VH 1: B2 VH 1
VL 1: B2 VL 1
VH 2: QSLEESGGGLVQPEGSLTLTCTASGFSFNNNYYMCWVRQAPGKGLEWIGCISTDDSNTHYASWAQGRFTISKASSTALTLQVAGLTVADMATYFCARDAHFTSYGYGFDLWGPGTLVTVSS
VL 2: DIVMTQTPASVSAAVGGTVSINCRASEDIENLVAWYQQKPGQPPKLLIYQASKLASGVPSRFKGSGSGAEFTLTIGDLESADAATYYCQGDYGSGWIMYSFGGGTDLVVK
notes: CrossMab, wild type IgG1 with knobs-into-holes; crossed arm 1A5, non-crossed arm 2F6; also called CCL2-0058; P1AA3427
B3: the binding result in test [2] is reported as “binds”.

B4: 1A5//1G9-WT IgG1 (bispecific antibody, V domains shown)
VH 1: B2 VH 1
VL 1: B2 VL 1
VH 2: B2 VH 2
VL 2: B2 VL 2
notes: CrossMab, wild type IgG1 with knobs-into-holes; crossed arm 1A5, non-crossed arm 1G9; also called CCL2-0052; P1AA3446
As for B4, the binding result in test [2] is recorded as “binds”.

B5: 11K2//1G9-WT IgG1 (bispecific antibody, V domains shown)
VH 1: QVQLVQSGAEVKKPGSSVKVSCKASGLTISDTYMHWVRQAPGQGLEWMGRIDPANGNTKFDPKFQGRVTITADTSTSTAYMELSSLRSEDTAVYYCARGVFGFFDYWGQGTTVTVSS
VL 1: DIQMTQSPSSLSASVGDRVTITCKATEDIYNRLAWYQQKPGKAPKLLISGATSLETGVPSRFSGSGSGTDYTLTISSLQPEDFATYYCQQFWSAPYTFGGGTKVEIK
VH 2: B2 VH 2
VL 2: B2 VL 2
notes: CrossMab, wild type IgG1 with knobs-into-holes; crossed arm humanized 11K2, non-crossed arm 1G9; also called CCL2-0049; P1AA3461
For the molecule B5, the binding result in test [2] is reported as “binds”.

B6: 1A5//2F6-PGLALA (bispecific antibody, V domains shown)
VH 1: B2 VH 1
VL 1: B2 VL 1
VH 2: B3 VH 2
VL 2: B3 VL 2
notes: CrossMab, IgG1 with L234A, L235A, P329G, knobs-into-holes; crossed arm 1A5, non-crossed arm 2F6; also called CCL2-0055; P1AA3402
Consider B6, for which, in test [2], the binding result is “binds”.

B7: ABN912//11K2-WT IgG1 (bispecific antibody, V domains shown)
VH 1: B5 VH 1
VL 1: B5 VL 1
VH 2: EVQLVQSGGGLVQPGGSLRLSCAASGFTFSHYWMSWVRQAPGKGLEWLANIEQDGSEKYYVDSVKGRFTISRDNAKNSLYLQMNSLRAEDTAVYFCARDLEGLHGDGYFDLWGRGTLVTVSS
VL 2: AIQLTQSPSSLSASVGDRVILTCRASQGVSSALAWYQQKPGKAPKLLIYDASSLESGVPSRFSGSGSGPDFTLTISSLQPEDFATYFCQQFNSYPLTFGGGTKVEIK
notes: CrossMab, wild type IgG1 with knobs-into-holes; crossed arm humanized 11K2, non-crossed arm ABN912; also called CCL2-0047; P1AA3447
Turning to B7, in test [2], the binding result is on record as “binds”.

B8: 11K2//2F6-WT IgG1 (bispecific antibody, V domains shown)
VH 1: B5 VH 1
VL 1: B5 VL 1
VH 2: B3 VH 2
VL 2: B3 VL 2
notes: CrossMab, wild type IgG1 with knobs-into-holes; crossed arm humanized 11K2, non-crossed arm 2F6; also called CCL2-0056; P1AA3392
On to B8, for which the binding result in test [2] is listed as “binds”.

B9: 11K2//2F6-PGLALA (bispecific antibody, V domains shown)
VH 1: B5 VH 1
VL 1: B5 VL 1
VH 2: B3 VH 2
VL 2: B3 VL 2
notes: CrossMab, IgG1 with L234A, L235A, P329G, knobs-into-holes; crossed arm humanized 11K2, non-crossed arm 2F6; also called CCL2-0053; P1AA3450
Take B9: in test [2], the binding result was “binds”.

B10: ABN912//11K2-PGLALA (bispecific antibody, V domains shown)
VH 1: B5 VH 1
VL 1: B5 VL 1
VH 2: B7 VH 2
VL 2: B7 VL 2
notes: CrossMab, IgG1 with L234A, L235A, P329G, knobs-into-holes; VH/VL-crossed arm humanized 11K2, non-crossed arm ABN912; also called CCL2-0041; P1AA3411
Turning to B10, the binding result in test [2] is on record as “binds”.

B11: P1AF8143 (CKLO2-CB-GG02) (bispecific antibody)
chain 1: not shown
chain 2: QVQLVQSGAEVKKPGSSVKVSCKASGLTISHTYMHWVRQAPGQGLEWMGRIDPDNHNTKFDPKFQGRVTITADTSTSTAYMELSSLRSEDTAVYYCARGVFGFFEHWGQGTTVTVSSASTKGPSVFPLAPSSKSTSGGTAALGCLVKDYFPEPVTVSWNSGALTSGVHTFPAVLQSSGLYSLSSVVTVPSSSLGTQTYICNVNHKPSNTKVDKKVEPKSCGGSGGGGSGGDKTHTCPPCPAPEYLGGDSVFLFPPKPKDVLMISRTPEVTCVVIDVSHEDPEVKFNWYVDGVEVHNAKTKPREEQYNSTYRVVSVLPVLHRDWLNGKEYKCKVSNKALPKPIEKTISKAKGQRREPQVYTLPPCRDELTKNQVSLWCLVKGFYPSDIAVEWESNGQPENNYKTTPPVLDSDGSFFLYSKLTVDKSRWQQGNVFSCSVLHEALHAHTTRKELSLSPGKGGSGGGGSGGDIQMTQSPSSLSASVGDRVTITCKAFEDIYNRRAWYQQKPGKAPKLLIHGATSLEHGVPSRFSGSGSGTDYTLTISSLQPEDFATYYCQQFWSAPYTFGGGTKVEIKRTVAAPSVFIFPPSDEQLKSGTASVVCLLNNFYPREAKVQWKVDNALQSGNSQESVTEQDSKDSTYSLSSTLTLSKADYEKHKVYACEVTHQGLSSPVTKSFNRGEC
With B11, in test [1], the “Depletion level max (%) of CCL2 from the supernatant” value stood at 82%, the “EC50 [nM] of CCL2 depletion” value was found to be 0.14 nM and the “EC90 [nM] of CCL2 depletion” value was determined as 0.4 nM.
